Experimental findings from patent US20090018093 are described below.

Where two headings read alike, the source gives them in different places.

In series [1] the test system is Immunoglobulin E (IgE) (Homo sapiens), P01854-1. The experiment in a line: filter.
Series [2] has the same test system. As to the kind of experiment: inhibition. The note with it: FACS.

Immunoglobulin E (IgE) (Homo sapiens), P01854-1, sequence (P01854 other isoform, or with tags, fused parts or gaps): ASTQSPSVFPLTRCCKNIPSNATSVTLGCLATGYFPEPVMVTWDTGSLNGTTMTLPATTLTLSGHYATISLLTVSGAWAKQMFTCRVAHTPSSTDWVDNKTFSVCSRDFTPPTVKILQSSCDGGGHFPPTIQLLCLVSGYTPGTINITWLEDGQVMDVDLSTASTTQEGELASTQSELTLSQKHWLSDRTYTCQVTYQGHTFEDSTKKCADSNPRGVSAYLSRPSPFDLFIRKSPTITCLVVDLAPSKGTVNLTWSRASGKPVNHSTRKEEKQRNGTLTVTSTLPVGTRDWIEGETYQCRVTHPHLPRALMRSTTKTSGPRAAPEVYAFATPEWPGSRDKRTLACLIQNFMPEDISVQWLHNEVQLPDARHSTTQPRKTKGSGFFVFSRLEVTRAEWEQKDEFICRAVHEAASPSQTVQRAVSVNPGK

For the sequence “GGCGGCAGCTTTATCCGTACCTCCCAGTGGGCTGCTCC [DNA clone SEQ 149]”, the Kd in series [1] came to 800 pM. For the same sequence, the IC50 in series [2] (15 nM IgE) is 55900 pM.
Take AGCCUGGGGACCCAUGGGGGGCU [ARC1728]: the Kd in series [1] (2'-OMe/2'-deoxy mix, dI, PS, 3' idT [18=dI, 20=dI (G parent), 24=3' inverted dT, phosphorothioate linkage N's left out (5^6, 7^8, 8^9, 15^16, 17^18, 18^19, 19^20, 20^21)], DPBS Mg/Ca, 0.1 mg/mL BSA, RT) amounted to 2300 pM. Also, in series [2] (2'-OMe/2'-deoxy mix, dI, PS, 3' idT [18=dI, 20=dI (G parent), 24=3' inverted dT, phosphorothioate linkage N's left out (5^6, 7^8, 8^9, 15^16, 17^18, 18^19, 19^20, 20^21)], 2.5 nM IgE), the IC50 is 13200 pM.
For AGCCUGGGGACCCAUGGGGGGCU [ARC1384], the Kd in series [1] (as printed mAmGmCmCmUdGmG-s-dGmAmCmCmCmAmU-s-dG-s-mGdG-s-dGdG-s-dGmCmU-3T [2'-OMe: 1-5,7,10-15,17,22,23, deoxy: 6,8,9,16,18-21, phosphorothioate after 8,15,16,18,20, 24 = 3' inverted dT], dPBS Ca/Mg + BSA, RT) stood at 500 pM. The IC50 in series [2] (2'-OMe/2'-deoxy mix, PS, 3' idT [PS after 8,15,16,18,20, 2'-OMe/2'-deoxy mix, 3' idT left out], 2.5 nM IgE) was determined as 4400 pM.
“NNAGCCUGGGNGACCCAUNNNGNNGNNGCUN [ARC1787]” returned an IC50 in series [2] (ARC1666 chemistry, 5' 40 kDa branched PEG, 3' idT, IgE-FceR1 on SX38 cells) of 1200 pM.
In series [2] (ARC1666 chemistry, 5' 60 kDa branched PEG, 3' idT, IgE-FceR1 on SX38 cells), “NNAGCCUGGGNGACCCAUNNNGNNGNNGCUN [ARC1788]” had an IC50 of 1200 pM.
On to AGCCUGGGGACCCAUGGGGGGCU [ARC1335], for which the Kd in series [1] (2'-OMe C,U,A1,G2,G7,A10,A14,G17, deoxy G6,G8,G9,G16,G18-G21, 3' idT [2'-OMe: 1-5,7,10-15,17,22,23, deoxy: 6,8,9,16,18-21, 24 = 3' inverted dT], dPBS Ca/Mg + BSA, RT) stood at 300 pM. Besides, the IC50 in series [2] (2'-OMe A1,G2,G7,A10,A14,G17 and all C,U, rest 2'-deoxy, 3' idT [2'-OMe at 1,2,3,4,5,7,10,11,12,13,14,15,17,22,23, 2'-deoxy at 6,8,9,16,18,19,20,21, 3' idT left out], 2.5 nM IgE) was found to be 7300 pM.
On to AGCCUGGGGACCCAUGGGGGGCU [ARC1785], for which the IC50 in series [2] (ARC1666 chemistry, 5' and 3' 20 kDa PEG [dI at 16,18,20 (written as parent G), PS after 8,15,16,18,20, 2'-OMe/2'-deoxy mix (ARC1666 chemistry), 5' and 3' amine linker-20 kDa PEG left out], IgE-FceR1 on SX38 cells) was found to be 2000 pM.
Regarding AGCCUGGGGACCCAUGGGGGGCU [ARC1790], the IC50 in series [2] (ARC1666 chemistry, 5' and 3' 30 kDa PEG [dI at 16,18,20 (written as parent G), PS after 8,15,16,18,20, 2'-OMe/2'-deoxy mix (ARC1666 chemistry), 5' and 3' amine linker-30 kDa PEG left out], IgE-FceR1 on SX38 cells) was found to be 890 pM.
The sequence “GGGGCTACTTTATCCGTTCCTCCTAGTGGGTAGCCCC [ARC656]” had an IC50 in series [2] (3' idT [3' idT left out], 2.5 nM IgE, histamine release IC50 16.9 nM) of 21200 pM.
Consider “GGGAAAAGCGAAUCAUACACAAGAGUGCAAGAAGUGCAUUGCUGUGUCUGGUUCUUGGCGAUGUGCUCCGCCAGAGACCAACCGAGAA [rRfY clone SEQ 17]”, for which, in series [1] (2'-F C,U, ratio bound +/- 20 nM IgE), the binding signal is 0.76.
As to “AGCCUGGGNGACCCAUNNNGNNGNNGNCNUNN [ARC3273]”, the Kd in series [1] (ARC2342 chemistry with 2'-OMe G8,I16, 3' idT, DPBS Mg/Ca, BSA, RT) was 860 pM.
As for “GGGGCTACTTTATCCGTTCCTCCTAGTGGGTAGCCCC [ARC1415]”, the Kd in series [1] (2'-OMe at 1-4,7,33-37, multiple PS as printed, 3' idT [2'-OMe at 1-4,7,33-37, PS 9-10,12-13,14-15,18-19,21-22,24-25,27-28,30-31, 3' idT cap after 37 (left out)], DPBS Mg/Ca, BSA) came to 1200 pM.
Regarding AGCCUGGGGACCCAUGGGGGGCU [ARC1258], the Kd in series [1] (2'-OMe C,U and G16, other A,G deoxy, 3' idT [2'-OMe: 3,4,5,11,12,13,15,16,22,23, 2'-deoxy: 1,2,6,7,8,9,10,14,17,18,19,20,21, 24 = 3' inverted dT], dPBS Ca/Mg + BSA, RT) turned out to be 15000 pM.
As to “GGGGCTACTTTATCCGTTCCTCCTAGTGGGTAGCCCC [ARC1408]”, the Kd in series [1] (2'-OMe at 1-4,7,33-37, PS 25-26, 3' idT [2'-OMe at 1-4,7,33-37, PS 25-26, 3' idT cap after 37 (left out)], DPBS Mg/Ca, BSA) was 1000 pM.
“GGGGCTACTTTATCCGTTCCTCCTAGTGGGTAGCCCC [ARC1391]” displayed a dissociation constant (Kd) in series [1] (2'-OMe at 1-4,7,33-37, PS 8-9, 3' idT [2'-OMe at 1-4,7,33-37, PS linkage 8-9 (internal N = PS, not a base), 3' inverted dT cap (terminal N, left out)], DPBS Mg/Ca, BSA) of 4400 pM.
In the case of “AGCNCUGGGNGACCCAUNNNGNNGNNGCUN [ARC2971]”, in series [1] (ARC1666 chemistry + PS 3-4, 3' idT, DPBS Mg/Ca, BSA, RT), the Kd stood at 60 pM.
“GGGGCTACTTTATCCGTTCCTCCTAGTGGGTAGCCCCT [ARC1265]” displayed a Kd in series [1] (2'-OMe at 1, 3' idT [1=2'-OMe G, 38=3' inverted dT], DPBS Mg/Ca, BSA) of 200 pM.
As to “GGGGCTACTTTATCCGTTCCTCCTAGTGGGTAGCCCC [ARC1402]”, the Kd in series [1] (2'-OMe at 1-4,7,33-37, PS 19-20, 3' idT [2'-OMe at 1-4,7,33-37, PS linkage 19-20 (internal N = PS, not a base), 3' inverted dT cap (terminal N, left out)], DPBS Mg/Ca, BSA) came to 2100 pM.
Regarding AGCCUGGGGACCCAUGGGGGGCU [ARC1263], the Kd in series [1] (2'-OMe C,U and G21, other A,G deoxy, 3' idT [2'-OMe: 3-5,11-13,15,21-23, deoxy: 1,2,6-10,14,16-20, 24 = 3' inverted dT], dPBS Ca/Mg + BSA, RT) turned out to be 64000 pM.
Turning to AGCCUGGGGACCCAUGGGGGGCU [ARC1332], the Kd in series [1] (2'-OMe G2,A10,A14 and all C,U, rest 2'-deoxy, 3' idT [2'-OMe G2,C3,C4,U5,A10,C11,C12,C13,A14,U15,C22,U23, 3' inverted dT at 24], DPBS Mg/Ca, 0.1 mg/mL BSA, RT) turned out to be 500 pM.
With “GGGGCTACTTTATCCGTTCCTCCTAGTGGGTAGCCCC [ARC1394]”, in series [1] (2'-OMe at 1-4,7,33-37, PS 11-12, 3' idT [2'-OMe at 1-4,7,33-37, PS linkage 11-12 (internal N = PS, not a base), 3' inverted dT cap (terminal N, left out)], DPBS Mg/Ca, BSA), the Kd worked out at 8100 pM.
As for AGCCUGGGGACCCAUGGGGGGCU [ARC1256], in series [1] (2'-OMe C,U and A10, other A,G deoxy, 3' idT [2'-OMe: 3,4,5,10,11,12,13,15,22,23, 2'-deoxy: 1,2,6,7,8,9,14,16,17,18,19,20,21, 24 = 3' inverted dT], dPBS Ca/Mg + BSA, RT), the Kd was determined as 400 pM.
Regarding AGCCUGGGGACCCAUGGGGGGCU [ARC2981], the Kd in series [1] (ARC1666 pattern plus PS between A14 and U15, 3' idT [dI (written G) at 16,18,20, 2'-OMe 1-5,7,10-15,17,22,23, deoxy 6,8,9,16,18-21, PS 8/9,14/15,15/16,16/17,18/19,20/21, 3' inverted dT left out], dPBS Ca/Mg + BSA, RT) is 20 pM.
Take “GGGGCTACTTTATCCGTTCCTCCTAGTGGGTAGCCCCT [ARC1410]”: in series [1] (DNA with 2'-OMe G1-G4,A7,G33-C37, PS between T27 and G28, 3' idT [2'-OMe G1-G4, A7, G33-C37, PS 27/28 (printed N = PS linkage, left out), 3' inverted dT at 38], dPBS Ca/Mg + BSA), the Kd is 700 pM.
“GGGGCACATTCATCCGTCCCTCCTAGTGGTGTGCTCC [DNA clone SEQ 128]” displayed a Kd in series [1] of 500 pM.
In the case of “GGGGCTACTTTATCCGTTCCTCCTAGTGGGTAGCCCCT [ARC1298]”, the Kd in series [1] (2'-OMe at 34, 3' idT [2'-OMe: 34, 38 = 3' inverted dT], DPBS Mg/Ca, BSA) is 400 pM.
With AGUAGCCUGGGGACCCAUGGGGGGCUACU [ARC3276], the Kd in series [1] (mAmGmUmAmGmCmCmUdGmGdG-s-dGmAmCmCmCmAmU-s-dI-s-mGdI-s-dGdI-s-dGmCmUmAmCmU [dI (written G) at 19,21,23, 2'-OMe 1-8,10,13-18,20,25-29, deoxy 9,11,12,19,21-24, PS 11/12,18/19,19/20,21/22,23/24, 3' inverted dT left out], dPBS Ca/Mg + BSA, RT) was 30 pM.
Sequence AGCCUGGGGACCCAUGGGGGGCU [ARC1259] gave a Kd in series [1] (2'-OMe G17 and all C,U, rest 2'-deoxy, 3' idT [2'-OMe at 3,4,5,11,12,13,15,17,22,23, 3'-idT at 24], DPBS Mg/Ca, 0.1 mg/mL BSA, RT) of 5000 pM.
“GGGGTACCTTTATCCGTTTCTCCTAGTGGGGTGCCCC [DNA clone SEQ 132]” had an equilibrium dissociation constant (Kd) in series [1] of 400 pM.
For the sequence “GGAAUCAUACACAAGACGUCAGUAAGAUUGAGUGUAUGGUU [rRfY minimer SEQ 96]”, the Kd in series [1] (2'-F C and U, KD2 39.7 nM, 1xSHMCK + tRNA) came to 365 pM.
For “AGCCUGGGNGNACCCAUNNNGNNGNNGCUN [ARC2976]”, the Kd in series [1] (ARC1666 pattern plus PS between G9 and A10, 3' idT, dPBS Ca/Mg + BSA, RT) was 300 pM.
Regarding “AGCCUGNGGNGACCCAUNNNGNNGNNGCUN [ARC2974]”, the Kd in series [1] (ARC1666 chemistry + PS 6-7, 3' idT, DPBS Mg/Ca, BSA, RT) came out at 70 pM.
“GGGGCTACTTTATCCGTTCCTCCTAGTGGGTAGCCCCT [ARC1272]” returned a Kd in series [1] (2'-OMe at 8, 3' idT [8 (2'-OMe C), 38 (3' inverted dT)], DPBS Mg/Ca, BSA) of 200 pM.
Turning to “AGCCUGGGNGACCCAUNNNGNNGNNGNCNUNN [ARC3274]”, in series [1] (ARC2342 chemistry with 2'-OMe G9,I16, 3' idT, DPBS Mg/Ca, BSA, RT), the Kd was found to be 120 pM.
AGCCUGGGGACCCAUGGGGGGCU [ARC904] gave a Kd in series [1] (dRmY (2'-OMe C,U), 7-deaza-dG7 [7-deaza-dG at 7, 2'-OMe C3,C4,U5,C11,C12,C13,U15,C22,U23, A,G 2'-deoxy], DPBS Mg/Ca, 0.1 mg/mL BSA, RT) of 8000 pM.
For the sequence “GGGAGAGGAGAGAACGUUCUACAUUGUGCUCCUGGGGCCCAGUGGGGAGCCACGCUGUCGAUCGAUCGAUCGAUG [ARC1995]”, the Kd in series [1] (dRmY: 2'-deoxy A,G, 2'-OMe C,U, error 2, dPBS Ca/Mg + BSA, RT) is 4000 pM.
